Measurements: patent publication US20260109776A1 (Amgen, published 2026)
Like-named read-outs stand apart in the source and are kept apart here. Values belong to the binder of their own block, whether it stands above or below them.

Experiments:
[1] = biological target: human CD40 (human, UniProt P25942 21-277); experiment: cell-based or functional assay
[2] = biological target: T1, huMSLN(296-598) (human, UniProt Q13421 296-598); experiment: Octet
T1 construct: also called soluble human mesothelin
Protocol: (§1) A panel of mesothelin×CD40 bispecific antibodies were generated in the IgG-scFv format (Table 13) and evaluated for binding to soluble forms of human and cynomolgus monkey CD40 and human and cynomolgus monkey mesothelin using the Octet assay (Table 14). Association rate (Kon), disassociation rate (Kdis), and equilibrium binding constant (KD) were calculated. […] These bispecific antibodies were next evaluated for their ability to induce mesothelin-dependent activation of human B cells. CHO cells expressing human mesothelin were seeded into a 96 well plate. The next day varying concentrations of the mesothelin×CD40 IgG-scFv antibodies were added to the wells along with purified human B cells and the plates were incubated for an additional 48 hours. Upregulation of CD86, a marker of CD40-mediated B cell activation, was quantified on B cells by flow cytometry.

[3] = biological target: T2, cynoCD40(1-193) (cynomolgus monkey, UniProt P25942 21-193 (human entry)); experiment: Octet
T2 construct: also called soluble cynomolgus monkey CD40
T2 chain: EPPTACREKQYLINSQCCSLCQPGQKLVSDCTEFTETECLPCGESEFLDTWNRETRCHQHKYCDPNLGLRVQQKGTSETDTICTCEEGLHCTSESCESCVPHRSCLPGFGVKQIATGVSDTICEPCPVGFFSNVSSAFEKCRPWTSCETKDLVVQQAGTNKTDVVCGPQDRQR
Protocol: as §1

[4] = biological target: T3, cynoMSLN(296-598) (cynomolgus monkey); experiment: Octet
T3 chain: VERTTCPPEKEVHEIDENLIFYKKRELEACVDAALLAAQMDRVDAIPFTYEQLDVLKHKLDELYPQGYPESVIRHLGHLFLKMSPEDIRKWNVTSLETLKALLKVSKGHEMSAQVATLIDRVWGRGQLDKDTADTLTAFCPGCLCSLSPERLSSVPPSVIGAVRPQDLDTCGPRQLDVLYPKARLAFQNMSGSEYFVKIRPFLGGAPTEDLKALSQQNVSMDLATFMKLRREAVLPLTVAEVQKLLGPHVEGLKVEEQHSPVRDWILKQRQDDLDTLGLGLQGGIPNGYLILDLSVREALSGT
Protocol: as §1

[5] = biological target: T4, huCD40(1-193) (human, UniProt P25942 21-193); experiment: Octet
T4 construct: also called soluble human CD40
Protocol: as §1

[6] = biological target: T5, human CD40 on cells (human, UniProt P25942 21-277); experiment: cell-based or functional assay
[7] = biological target: T5, human CD40 on cells; experiment: flow cytometry, labelled CD40L on CD40-293T cells, antibody at 5 ug/ml
Protocol: (§2) Percent ligand binding inhibition was calculated as [(CD40L binding gMFI in the absence of anti-CD40)−(CD40L binding gMFI in the presence of anti-CD40)]/(CD40L binding gMFI in the absence of anti-CD40). gMFI: geometric mean fluorescent intensity. All anti-CD40 antibodies show minimal effects on the ability of CD40L to bind to the CD40 receptor (Table 7).

[8] = biological target: T5, human CD40 on cells; experiment: cell-based or functional assay; remark: listed apart in the source
[9] = biological target: T5, human CD40 on cells; experiment: flow cytometry, labelled CD40L on CD40-293T cells, antibody at 10 ug/ml
Protocol: as §2

[10] = biological target: T5, human CD40 on cells; experiment: flow cytometry, labelled CD40L on CD40-293T cells, antibody at 20 ug/ml
Protocol: as §2

[11] = biological target: T6, mouse CD40 on cells (mouse, UniProt P27512 20-289); experiment: flow cytometry, HEK293 transfectants
T6 construct: whole, on cells; also called mouse CD40 on HEK293 cells; CD40 on mouse B cells
T6 sequence (looked up): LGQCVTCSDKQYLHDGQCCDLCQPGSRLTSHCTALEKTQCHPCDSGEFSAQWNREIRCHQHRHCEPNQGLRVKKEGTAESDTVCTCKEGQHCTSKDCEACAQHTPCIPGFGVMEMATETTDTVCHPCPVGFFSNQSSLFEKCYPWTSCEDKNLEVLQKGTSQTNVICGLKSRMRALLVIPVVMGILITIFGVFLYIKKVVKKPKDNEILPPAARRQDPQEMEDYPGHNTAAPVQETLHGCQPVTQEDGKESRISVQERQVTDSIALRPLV

[12] = biological target: human CD40 (human, UniProt P25942 21-193, limits assumed); experiment: Octet
Protocol: (§3) The binding affinity of anti-human CD40 antibodies to human and cynomolgus monkey CD40 was measured by Octet assay (Table 3), quantifying association rate (Kon), disassociation rate (Kdis), and equilibrium binding constant (KD). Cross-reactivity of anti-CD40 antibodies to related TNF receptor superfamily (TNFRSF) members was evaluated by expressing human TNFR1, TNFR2, TNFR10, or TNFR14 on HEK293 cells by transient transfection of expression vectors encoding these genes. Binding of indicated anti-human CD40 antibody to these transfected cells was determined by flow cytometry. […] Cross-reactivity of anti-CD40 antibodies to cynomolgus monkey and mouse CD40 was evaluated by expressing cynomolgus monkey or mouse CD40 on HEK293 cells by transient transfection of expression vectors encoding these genes. Binding of indicated anti-human CD40 antibody to cells overexpressing cynomolgus monkey and mouse CD40 was determined by flow cytometry.

[13] = biological target: T7, human TNFR2 (human, UniProt P20333 23-461); experiment: flow cytometry, HEK293 transfectants
T7 construct: whole, on cells
T7 sequence (looked up): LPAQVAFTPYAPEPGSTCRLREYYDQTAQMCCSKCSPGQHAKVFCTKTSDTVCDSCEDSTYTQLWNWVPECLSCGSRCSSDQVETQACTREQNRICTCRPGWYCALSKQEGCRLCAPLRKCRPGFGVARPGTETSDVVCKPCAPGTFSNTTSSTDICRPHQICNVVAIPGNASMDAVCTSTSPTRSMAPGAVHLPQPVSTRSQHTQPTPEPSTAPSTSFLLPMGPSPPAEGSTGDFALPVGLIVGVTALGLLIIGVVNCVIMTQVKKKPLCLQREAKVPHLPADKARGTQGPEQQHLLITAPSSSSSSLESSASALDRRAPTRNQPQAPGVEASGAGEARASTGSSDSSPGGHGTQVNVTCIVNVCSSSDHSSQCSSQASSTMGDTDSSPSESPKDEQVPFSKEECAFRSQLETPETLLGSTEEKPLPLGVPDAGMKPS
Protocol: as §3

[14] = biological target: T8, human TNFR14 (human, UniProt Q92956 39-283); experiment: flow cytometry, HEK293 transfectants
T8 construct: whole, on cells
T8 sequence (looked up): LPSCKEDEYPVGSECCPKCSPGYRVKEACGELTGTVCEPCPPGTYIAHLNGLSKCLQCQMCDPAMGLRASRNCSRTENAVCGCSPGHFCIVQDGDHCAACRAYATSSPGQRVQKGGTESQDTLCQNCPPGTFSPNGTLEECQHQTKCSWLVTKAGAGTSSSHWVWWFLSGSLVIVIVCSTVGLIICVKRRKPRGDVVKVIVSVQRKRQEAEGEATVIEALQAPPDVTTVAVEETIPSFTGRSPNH
Protocol: as §3

[15] = biological target: T9, human TNFR1 (human, UniProt P19438 30-455); experiment: flow cytometry, HEK293 transfectants
T9 construct: whole, on cells
T9 sequence (looked up): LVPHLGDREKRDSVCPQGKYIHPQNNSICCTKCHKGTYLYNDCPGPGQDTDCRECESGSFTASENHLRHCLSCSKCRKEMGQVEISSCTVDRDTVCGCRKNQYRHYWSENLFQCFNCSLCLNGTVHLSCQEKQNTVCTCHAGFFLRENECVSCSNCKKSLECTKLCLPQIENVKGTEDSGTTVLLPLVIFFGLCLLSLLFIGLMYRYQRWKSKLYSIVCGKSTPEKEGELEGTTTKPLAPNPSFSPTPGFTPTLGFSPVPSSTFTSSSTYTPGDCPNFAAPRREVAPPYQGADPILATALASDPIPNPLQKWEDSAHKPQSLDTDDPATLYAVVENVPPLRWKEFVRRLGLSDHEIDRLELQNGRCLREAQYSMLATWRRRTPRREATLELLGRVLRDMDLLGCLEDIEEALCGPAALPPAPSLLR
Protocol: as §3

[16] = biological target: T7, human TNFR2; experiment: flow cytometry, HEK293 transfectants vs control cells
Protocol: as §3

[17] = biological target: T8, human TNFR14; experiment: as above
Protocol: as §3

[18] = biological target: T9, human TNFR1; experiment: as above
Protocol: as §3

[19] = biological target: T10, cynomolgus monkey CD40 on cells (cynomolgus monkey, UniProt P25942 21-277 (human entry)); experiment: as above
T10 construct: also called cyno CD40 on HEK293 cells; CD40 on cynomolgus monkey B cells
T10 chain: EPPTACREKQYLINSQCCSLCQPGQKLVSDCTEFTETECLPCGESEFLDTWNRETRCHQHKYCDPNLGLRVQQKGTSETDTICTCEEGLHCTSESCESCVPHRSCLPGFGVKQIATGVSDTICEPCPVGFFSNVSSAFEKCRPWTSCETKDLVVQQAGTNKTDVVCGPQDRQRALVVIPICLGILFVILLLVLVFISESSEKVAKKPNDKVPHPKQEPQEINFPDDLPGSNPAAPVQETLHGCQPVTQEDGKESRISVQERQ
Protocol: as §3

[20] = biological target: T6, mouse CD40 on cells; experiment: as above
Protocol: as §3

[21] = biological target: T11, human TNFR10 (human); experiment: as above
T11 construct: whole, on cells; Name as printed is ambiguous (TNFRSF10A-D)
Protocol: as §3

[22] = biological target: T5, human CD40 on cells; experiment: cell-based or functional assay; remark: listed apart in the source
[23] = biological target: T5, human CD40 on cells; experiment: flow cytometry, labelled CD40L on CD40-293T cells, antibody at 2.5 ug/ml
Protocol: as §2

EC50 (nM), CD86 upregulation on human B cells with huMSLN-CHO cells [1]: 0.00935 nM
Kd [2]: 0.4 nM
koff [2]: 0.000306 s⁻¹
kon [2]: 692000 M⁻¹ s⁻¹
Kd [3]: 1.7 nM
koff [3]: 0.000407 s⁻¹
kon [3]: 238000 M⁻¹ s⁻¹
Kd [4]: 5.8 nM
koff [4]: 0.00199 s⁻¹
kon [4]: 345000 M⁻¹ s⁻¹
Kd [5]: 2 nM
koff [5]: 0.000407 s⁻¹
kon [5]: 204000 M⁻¹ s⁻¹
B1: 6032-2 (bispecific antibody)
heavy: not shown
light: DIQMTQSPSSVSASVGDRVTITCRASQDISRWLAWYQQKPGKAPKLLISAASRLQSGVPSRFSGSGSGTDFTLTISSLQPEDFAIYYCQQAKSFPRTFGQGTKVEIKRTVAAPSVFIFPPSDEQLKSGTASVVCLLNNFYPREAKVQWKVDNALQSGNSQESVTEQDSKDSTYSLSSTLTLSKADYEKHKVYACEVTHQGLSSPVTKSFNRGEC
notes: IgG-scFv: IgG (MSLN) 6F4, scFv (CD40) 29H10

CD40L EC50, human B cell proliferation, no antibody [6]: 1.08 ng/mL
CD40L EC50, human B cell proliferation, with 1 ug/ml 4G7 [6]: 1.04 ng/mL
CD40L EC50, human B cell proliferation, with 1 ug/ml 29H10 [6]: 0.715 ng/mL
CD40L EC50, human B cell proliferation, with 1 ug/ml 30A12 [6]: 0.81 ng/mL
CD40L EC50, human B cell proliferation, with 1 ug/ml 33H6 [6]: 1.14 ng/mL
CD40L EC50, human B cell proliferation, with 1 ug/ml 35F11 [6]: 6.66 ng/mL
CD40L EC50, human B cell proliferation, with 1 ug/ml 36F3 [6]: 13 ng/mL
CD40L EC50, human B cell proliferation, with 1 ug/ml 37A6 [6]: 1.39 ng/mL
CD40L EC50, human B cell proliferation, with 1 ug/ml 39C2 [6]: 0.985 ng/mL
B2: soluble human CD40L (ligand, UniProt P29965 113-261, looked up)
chain: MQKGDQNPQIAAHVISEASSKTTSVLQWAEKGYYTMSNNLVTLENGKQLTVKRQGLYYIYAQVTFCSNREASSQAPFIASLCLKSPGRFERILLRAANTHSSAKPCGQQSIHLGGVFELQPGASVFVNVTDPSQVSHGTGFTSFGLLKL
modifications: fluorescent label in the ligand binding assay of Table 7

Ligand Binding Inhibition (%) [7]: 9%
human B cell proliferation, no crosslinking, EC50 [8]: > 16.7 nM
human B cell proliferation, no crosslinking, Max Fold Change [8]: 1.35 fold
human B cell proliferation, with protein G crosslinking, EC50 [8]: 0.344 nM
human B cell proliferation, with protein G crosslinking, Max Fold Change [8]: 23.2 fold
Ligand Binding Inhibition (%) [9]: 3%
Ligand Binding Inhibition (%) [10]: 1%
binding result [11]: no binding
Kd [12]: 0.58 nM
koff [12]: 0.000238 s⁻¹
kon [12]: 407000 M⁻¹ s⁻¹
binding result [13]: no binding
binding result [14]: no binding
binding result [15]: no binding
fold over control (gMFI) [16]: 0.93 fold
fold over control (gMFI) [17]: 0.88 fold
fold over control (gMFI) [18]: 1.03 fold
fold over control (gMFI) [19]: 73 fold
fold over control (gMFI) [20]: 0.9 fold
fold over control (gMFI) [21]: 0.89 fold
human B cell proliferation, no crosslinking, % Max Activity [22]: 2.3%
human B cell proliferation, no crosslinking, EC50 [22]: > 13.4 nM
human B cell proliferation, with protein G crosslinking, % Max Activity [22]: 88.9%
human B cell proliferation, with protein G crosslinking, EC50 [22]: 0.19 nM
Ligand Binding Inhibition (%) [23]: -3%
B3: 33H9 (antibody, IgG4, V domains shown)
VH: QVQLVESGGGVVQPGRSLRLSCAASGFTFSSHGMHWVRQPPGKGLEWVAVIWYDGSNEYYGDSVKGRFTISRDNSKNTLYLQMNSLRVEDTAVYYCTRGGGHWNYEGHYYGMDVWGQGTTVTVSS
VL: QAVPTQPSSLSASPGASASLTCTLRSGINVGSSRIYWYQQKPGSPPQFLLRYTSDSDKLQGSGVPSRFSGSKDASANAGLLLISGLQSEDEADYYCMIWHSSAVVFGGGTKLTVLG
notes: also called 4897-1
